The results in this text go back to PMC4952014 (2015).

First the molecules themselves.
B2: Siglec-1 (recombinant protein used for SPR) (receptor)
chain: SWGVSSPQDVQGVKGSCLLIPCIFSFPADVEVPDGITAIWYYDYSGQRQVVSHSADPKLVEARFRGRTEFMGNPEHRVCNLLLKDLQPEDSGSYNFRFEISEVNRWSDVKGTLVTVTEEPRVPTIASPVELLEGTEVDFNCSTPYVCLQEQVRLQWQGQDPARSVTFNSQKFEPTGVGHLETLHMAMSWQDHGRILRCQLSVANHRAQSEIHLQVKYAPKGVKILLSPSGRNILPGELVTLTCQVNSSYPAVSSIKWLKDGVRLQTKTGVLHLPQAAWSDAGVYTCQAENGVGSLVSPPISLHIFMAEVQVSPAGPILENQTVTLVCNTPNEAPSDLRYSWYKNHVLLEDAHSHTLRLHLATRADTGFYFCEVQNVHGSERSGPVSVVVNHPPLTPVLTAFLETQAGLVGILHCSVVSEPLATLVLSHGGHILASTSGDSDHSPRFSGTSGPNSLRLEIRDLEETDSGEYKCSATNSLGNATSTLDFHANAARLLISPAAEVVEGQAVTLSCRSGLSPTPDARFSWYLNGALLHEGPGSSLLLPAASSTDAGSYHCRARDGHSASGPSSPAVLTVLYPPRQPTFTTRLDLDAAGAGAGRRGLLLCRVDSDPPARLQLLHKDRVVATSLPSGGGCSTCGGCSPRMKVTKAPNLLRVEIHNPLLEEEGLYLCEASNALGNASTSATFNGQATVLAIAPSHTLQEGTEANLTCNVSREAAGSPANFSWFRNGVLWAQGPLETVTLLPVARTDAALYACRILTEAGAQLSTPVLLSVLYPPDRPKLSALLDMGQGHMALFICTVDSRPLALLALFHGEHLLATSLGPQVPSHGRFQAKAEANSLKLEVRELGLGDSGSYRCEATNVLGSSNTSLFFQVRGAWVQVSPSPELQEGQAVVLSCQVHTGVPEGTSYRWYRDGQPLQESTSATLRFAAITLTQAGAYHCQAQAPGSATTSLAAPISLHVSYAPRHVTLTTLMDTGPGRLGLLLCRVDSDPPAQLRLLHGDRLVASTLQGVGGPEGSSPRLHVAVAPNTLRLEIHGAMLEDEGVYICEASNTLGQASASADFDAQAVNVQVWPGATVREGQLVNLTCLVWTTHPAQLTYTWYQDGQQRLDAHSIPLPNVTVRDATSYRCGVGPPGRAPRLSRPITLDVLYAPRNLRLTYLLESHGGQLALVLCTVDSRPPAQLALSHAGRLLASSTAASVPNTLRLELRGPQPRDEGFYSCSARSPLGQANTSLELRLEGVRVILAPEAAVPEGAPITVTCADPAAHAPTLYTWYHNGRWLQEGPAASLSFLVATRAHAGAYSCQAQDAQGTRSSRPAALQVLYAPQDAVLSSFRDSRARSMAVIQCTVDSEPPAELALSHDGKVLATSSGVHSLASGTGHVQVARNALRLQVQDVPAGDDTYVCTAQNLLGSISTIGRLQVEGARVVAEPGLDVPEGAALNLSCRLLGGPGPVGNSTFAWFWNDRRLHAEPVPTLAFTHVARAQAGMYHCLAELPTGAAASAPVMLRVLYPPKTPTMMVFVEPEGGLRGILDCRVDSEPLASLTLHLGSRLVASSQPQGAPAEPHIHVLASPNALRVDIEALRPSDQGEYICSASNVLGSASTSTYFGVRALHRLHQFQQLLWVLGLLVGLLLLLLGLGACYTWRRRRVCKQSMGENSVEMAFQKETTQLIDPDAATCETSTCAPPLG

In test [1] the target is B2. Description: SPR; immobilized Siglec-1.
A further test deals with Soc-V1V2JR-FL (293F) (bacteriophage T4 | HIV-1 JR-FL). Nature of the test: SPR; immobilized Siglec-1. A general note: In SPR one partner is held on a chip, and binding of the other changes the refractive index at the surface.
The target in test [2] is T1, SF162 FD trimeric gp145 (HIV-1 SF162 | bacteriophage T4, UniProt P19551). Description: SPR; immobilized SF162 gp145.
Test [3] concerns the target T2, JR-FL FD trimeric gp145 (HIV-1 JR-FL | bacteriophage T4). Description: SPR; immobilized Siglec-1.
For test [4], the target named is T2, JR-FL FD trimeric gp145. Nature of the test: SPR; immobilized JR-FL gp145.
Test [5] concerns the target T1, SF162 FD trimeric gp145. Description: SPR; immobilized Siglec-1.
Another test deals with Soc-V1V2SF162 (CHO-S) (bacteriophage T4 | HIV-1 SF162). Description: SPR; immobilized Siglec-1.

B1: JR-FL monomeric gp120 (natural protein)
chain: not shown
modifications: N-glycosylated and sialylated (293F-expressed). Limits are not printed: start is the candidate's CHAIN start at 32, end is the residue before gp41 at 503. A vector-derived N-terminus from the CD5 leader, and a C-terminus affected by the cleavage-site change, are possible but not stated.
Broadly, the Kd is the concentration at which binding is half-saturated. On to B1, for which the Kd in test [1] amounted to 4.13 nM.

Consider B2, for which the Kd worked out at 4.34 nM with Soc-V1V2JR-FL (293F); 8.26 nM with SF162 FD trimeric gp145 [2]; 0.28 nM with JR-FL FD trimeric gp145 [3]; 2.9 nM with JR-FL FD trimeric gp145 [4]; 0.441 nM with SF162 FD trimeric gp145 [5]; 1.96 nM in the test with Soc-V1V2SF162 (CHO-S).
